In patent publication US20140087995A1 (published 2014):
Numbered stars: 1 amine (or outer) side, 2 acyl side, 3 side chain; on linkers, the order of the positions; unused ones are H or OH. Bridge positions count the residues as written; N and C are the ends. * marks the point of attachment. C20 diacid = O=C(O)CCCCCCCCCCCCCCCCCCC(=O)*; γGlu = O=C(O)[C@H](CCC(=O)[*:2])N[*:1]

T1: human amylin receptor (amylin 3(a) receptor: human calcitonin receptor plus RAMP-3) (human, UniProt P30988 25-474; O60896 24-148, limits assumed)
T1 construct: whole, on cells; the functional assay (Assay IIa) used the whole cells; also called hAmylin-R; hAmylinR
T1 sequence (looked up) 1: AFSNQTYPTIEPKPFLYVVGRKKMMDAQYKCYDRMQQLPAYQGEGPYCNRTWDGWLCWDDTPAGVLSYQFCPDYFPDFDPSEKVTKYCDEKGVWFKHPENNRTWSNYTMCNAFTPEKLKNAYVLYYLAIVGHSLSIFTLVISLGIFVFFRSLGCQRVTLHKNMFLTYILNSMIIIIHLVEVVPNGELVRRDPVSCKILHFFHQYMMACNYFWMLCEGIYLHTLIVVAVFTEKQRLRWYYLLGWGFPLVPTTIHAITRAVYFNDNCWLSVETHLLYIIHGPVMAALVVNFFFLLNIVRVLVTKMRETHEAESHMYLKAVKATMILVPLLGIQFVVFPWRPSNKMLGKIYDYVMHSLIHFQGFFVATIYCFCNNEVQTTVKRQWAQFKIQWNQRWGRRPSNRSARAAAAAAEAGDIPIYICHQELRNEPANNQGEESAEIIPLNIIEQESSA
T1 sequence (looked up) 2: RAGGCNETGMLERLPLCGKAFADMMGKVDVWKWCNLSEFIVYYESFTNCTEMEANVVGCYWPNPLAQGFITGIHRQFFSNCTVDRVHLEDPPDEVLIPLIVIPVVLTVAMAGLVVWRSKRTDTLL

T2: human calcitonin receptor (human, UniProt P30988 25-474)
T2 sequence (looked up): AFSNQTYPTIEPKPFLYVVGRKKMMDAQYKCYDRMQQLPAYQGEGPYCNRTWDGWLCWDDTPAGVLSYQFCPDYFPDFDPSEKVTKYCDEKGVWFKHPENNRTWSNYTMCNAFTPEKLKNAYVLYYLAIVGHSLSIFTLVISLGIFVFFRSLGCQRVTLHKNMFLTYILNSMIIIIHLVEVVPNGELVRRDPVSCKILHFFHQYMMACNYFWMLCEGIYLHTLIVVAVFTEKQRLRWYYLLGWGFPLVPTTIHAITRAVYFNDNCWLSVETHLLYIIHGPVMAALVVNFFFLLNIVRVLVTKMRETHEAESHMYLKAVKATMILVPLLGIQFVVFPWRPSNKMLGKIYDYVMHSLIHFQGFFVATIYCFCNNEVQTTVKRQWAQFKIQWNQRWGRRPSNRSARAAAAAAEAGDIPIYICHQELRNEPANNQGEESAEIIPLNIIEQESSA


Assays:
[1] = target: T1, human amylin receptor (amylin 3(a) …); test: SPA competition binding, membranes of Amylin 3(a)/CRE-luc BHK cells, displacement of 125I-rat amylin (Assay V)
Description: The binding assay was performed using scintillation proximity assay (SPA) beads (RPNQ0001) from PerkinElmer and cell membranes from the Amylin 3(a)/CRE-luc cells (as described in Assay (II)) were used. Membranes were prepared in the following way; the cells were rinsed with PBS and incubated with Versene for approximately 5 min before harvesting. The cells were flushed with PBS and the cell-suspension was centrifuged for 5 min at 1000 rpm. Cells were homogenized (ultrathurrax) in a buffer containing 20 mM Na-HEPES and 10 mM EDTA (pH 7.4) and centrifuged at 20.000 rpm for 15 min. The resulting pellet was resuspended, homogenized and centrifuged (20.000 rpm, 15 min) in a buffer containing 20 mM Na-HEPES and 0.1 mM EDTA (pH 7.4, buffer 2). The resulting pellet was resuspended in buffer 2 and protein concentration was measured (BCA protein Assay, Pierce). The homogenate was kept cold during the whole procedure. The membranes were kept at −80° C. until use. The assay was performed in a 384 well Optiplate (PerkinElmer) in a total volume of 40 ul. Membranes were mixed with SPA beads. Final concentration of membranes 35 ng/μL final and SPA beads was 0.05 mg/well. Test-compounds were dissolved in DMSO and further diluted in assay buffer (50 mM Hepes, pH 7.4, 1 mM CaCl2, 5 mM MgCl₂, 0.1% OA and 0.02% Tween20). […] The final mixture was incubated with shaking at 400 rpm for 120 min at 25° C. prior to centrifugation (1500 rpm, 10 min). Samples were analyzed on TopCounter™ (Packard). The IC₅₀ was calculated using (one site binding competition analysis) GraphPad Prism5 as a measure of receptor affinity.

[2] = target: T1, human amylin receptor (amylin 3(a) …); test: cell-based or functional assay
[3] = target: T2, human calcitonin receptor; test: cell-based or functional assay

IC50 [1] | hAmylin-R funct. EC50 [2] | Ratio hCT/hAmylin funct. (hCTR EC50 against hAmylin-R EC50) [3] | hCTR funct. EC50 [3] | Binder
0.082 nM | 72 pM | 1 | 70 pM | {C20 diacid-γGlu}-KCNTATCATQRLADFLRHSSPNFGAIPSSTNVGSNTP-NH2 (disulfide 2-7; SMILES CC[C@H](C)[C@H](NC(=O)[C@H](C)NC(=O)CNC(=O)[C@H](Cc1ccccc1)NC(=O)[C@H](CC(N)=O)NC(=O)[C@@H]1CCCN1C(=O)[C@H](CO)NC(=O)[C@H](CO)NC(=O)[C@H](Cc1c[nH]cn1)NC(=O)[C@H](CCCNC(=N)N)NC(=O)[C@H](CC(C)C)NC(=O)[C@H](Cc1ccccc1)NC(=O)[C@H](CC(=O)O)NC(=O)[C@H](C)NC(=O)[C@H](CC(C)C)NC(=O)[C@H](CCCNC(=N)N)NC(=O)[C@H](CCC(N)=O)NC(=O)[C@@H](NC(=O)[C@H](C)NC(=O)[C@@H]1CSSC[C@H](NC(=O)[C@H](CCCCN)NC(=O)CC[C@H](NC(=O)CCCCCCCCCCCCCCCCCCC(=O)O)C(=O)O)C(=O)N[C@@H](CC(N)=O)C(=O)N[C@@H]([C@@H](C)O)C(=O)N[C@@H](C)C(=O)N[C@@H]([C@@H](C)O)C(=O)N1)[C@@H](C)O)C(=O)N1CCC[C@H]1C(=O)N[C@@H](CO)C(=O)N[C@@H](CO)C(=O)N[C@H](C(=O)N[C@@H](CC(N)=O)C(=O)N[C@H](C(=O)NCC(=O)N[C@@H](CO)C(=O)N[C@@H](CC(N)=O)C(=O)N[C@H](C(=O)N1CCC[C@H]1C(N)=O)[C@@H](C)O)C(C)C)[C@@H](C)O, also called compound 10)
0.97 nM | 92 pM | 4 | 372 pM | {C20 diacid-γGlu}-KCNTATCATQRLAEFLRHSSPNFGAIPSPTNVGSNTY-NH2 (disulfide 2-7; SMILES CC[C@H](C)[C@H](NC(=O)[C@H](C)NC(=O)CNC(=O)[C@H](Cc1ccccc1)NC(=O)[C@H](CC(N)=O)NC(=O)[C@@H]1CCCN1C(=O)[C@H](CO)NC(=O)[C@H](CO)NC(=O)[C@H](Cc1c[nH]cn1)NC(=O)[C@H](CCCNC(=N)N)NC(=O)[C@H](CC(C)C)NC(=O)[C@H](Cc1ccccc1)NC(=O)[C@H](CCC(=O)O)NC(=O)[C@H](C)NC(=O)[C@H](CC(C)C)NC(=O)[C@H](CCCNC(=N)N)NC(=O)[C@H](CCC(N)=O)NC(=O)[C@@H](NC(=O)[C@H](C)NC(=O)[C@@H]1CSSC[C@H](NC(=O)[C@H](CCCCN)NC(=O)CC[C@H](NC(=O)CCCCCCCCCCCCCCCCCCC(=O)O)C(=O)O)C(=O)N[C@@H](CC(N)=O)C(=O)N[C@@H]([C@@H](C)O)C(=O)N[C@@H](C)C(=O)N[C@@H]([C@@H](C)O)C(=O)N1)[C@@H](C)O)C(=O)N1CCC[C@H]1C(=O)N[C@@H](CO)C(=O)N1CCC[C@H]1C(=O)N[C@H](C(=O)N[C@@H](CC(N)=O)C(=O)N[C@H](C(=O)NCC(=O)N[C@@H](CO)C(=O)N[C@@H](CC(N)=O)C(=O)N[C@H](C(=O)N[C@@H](Cc1ccc(O)cc1)C(N)=O)[C@@H](C)O)C(C)C)[C@@H](C)O, also called compound 37)
0.105 nM | 120 pM | 0.9 | 112 pM | {C20 diacid-γGlu}-KCNTATCATQRLAEFLRHSSPNFGAIPSSTNVGSDTP-NH2 (disulfide 2-7; SMILES CC[C@H](C)[C@H](NC(=O)[C@H](C)NC(=O)CNC(=O)[C@H](Cc1ccccc1)NC(=O)[C@H](CC(N)=O)NC(=O)[C@@H]1CCCN1C(=O)[C@H](CO)NC(=O)[C@H](CO)NC(=O)[C@H](Cc1c[nH]cn1)NC(=O)[C@H](CCCNC(=N)N)NC(=O)[C@H](CC(C)C)NC(=O)[C@H](Cc1ccccc1)NC(=O)[C@H](CCC(=O)O)NC(=O)[C@H](C)NC(=O)[C@H](CC(C)C)NC(=O)[C@H](CCCNC(=N)N)NC(=O)[C@H](CCC(N)=O)NC(=O)[C@@H](NC(=O)[C@H](C)NC(=O)[C@@H]1CSSC[C@H](NC(=O)[C@H](CCCCN)NC(=O)CC[C@H](NC(=O)CCCCCCCCCCCCCCCCCCC(=O)O)C(=O)O)C(=O)N[C@@H](CC(N)=O)C(=O)N[C@@H]([C@@H](C)O)C(=O)N[C@@H](C)C(=O)N[C@@H]([C@@H](C)O)C(=O)N1)[C@@H](C)O)C(=O)N1CCC[C@H]1C(=O)N[C@@H](CO)C(=O)N[C@@H](CO)C(=O)N[C@H](C(=O)N[C@@H](CC(N)=O)C(=O)N[C@H](C(=O)NCC(=O)N[C@@H](CO)C(=O)N[C@@H](CC(=O)O)C(=O)N[C@H](C(=O)N1CCC[C@H]1C(N)=O)[C@@H](C)O)C(C)C)[C@@H](C)O, also called compound 11)
0.878 nM | 268 pM | 8.8 | 2350 pM | {C20 diacid-γGlu}-KCNTATCATQRLAEFLRHSSPNFGAIPSSTNVGHNTY-NH2 (disulfide 2-7; SMILES CC[C@H](C)[C@H](NC(=O)[C@H](C)NC(=O)CNC(=O)[C@H](Cc1ccccc1)NC(=O)[C@H](CC(N)=O)NC(=O)[C@@H]1CCCN1C(=O)[C@H](CO)NC(=O)[C@H](CO)NC(=O)[C@H](Cc1c[nH]cn1)NC(=O)[C@H](CCCNC(=N)N)NC(=O)[C@H](CC(C)C)NC(=O)[C@H](Cc1ccccc1)NC(=O)[C@H](CCC(=O)O)NC(=O)[C@H](C)NC(=O)[C@H](CC(C)C)NC(=O)[C@H](CCCNC(=N)N)NC(=O)[C@H](CCC(N)=O)NC(=O)[C@@H](NC(=O)[C@H](C)NC(=O)[C@@H]1CSSC[C@H](NC(=O)[C@H](CCCCN)NC(=O)CC[C@H](NC(=O)CCCCCCCCCCCCCCCCCCC(=O)O)C(=O)O)C(=O)N[C@@H](CC(N)=O)C(=O)N[C@@H]([C@@H](C)O)C(=O)N[C@@H](C)C(=O)N[C@@H]([C@@H](C)O)C(=O)N1)[C@@H](C)O)C(=O)N1CCC[C@H]1C(=O)N[C@@H](CO)C(=O)N[C@@H](CO)C(=O)N[C@H](C(=O)N[C@@H](CC(N)=O)C(=O)N[C@H](C(=O)NCC(=O)N[C@@H](Cc1c[nH]cn1)C(=O)N[C@@H](CC(N)=O)C(=O)N[C@H](C(=O)N[C@@H](Cc1ccc(O)cc1)C(N)=O)[C@@H](C)O)C(C)C)[C@@H](C)O, also called compound 17)
0.554 nM | 154 pM | 4.8 | 742 pM | {C20 diacid-γGlu}-KCNTATCATQRLAEFLRHSSPNFGAIPSSTNVGSHTY-NH2 (disulfide 2-7; SMILES CC[C@H](C)[C@H](NC(=O)[C@H](C)NC(=O)CNC(=O)[C@H](Cc1ccccc1)NC(=O)[C@H](CC(N)=O)NC(=O)[C@@H]1CCCN1C(=O)[C@H](CO)NC(=O)[C@H](CO)NC(=O)[C@H](Cc1c[nH]cn1)NC(=O)[C@H](CCCNC(=N)N)NC(=O)[C@H](CC(C)C)NC(=O)[C@H](Cc1ccccc1)NC(=O)[C@H](CCC(=O)O)NC(=O)[C@H](C)NC(=O)[C@H](CC(C)C)NC(=O)[C@H](CCCNC(=N)N)NC(=O)[C@H](CCC(N)=O)NC(=O)[C@@H](NC(=O)[C@H](C)NC(=O)[C@@H]1CSSC[C@H](NC(=O)[C@H](CCCCN)NC(=O)CC[C@H](NC(=O)CCCCCCCCCCCCCCCCCCC(=O)O)C(=O)O)C(=O)N[C@@H](CC(N)=O)C(=O)N[C@@H]([C@@H](C)O)C(=O)N[C@@H](C)C(=O)N[C@@H]([C@@H](C)O)C(=O)N1)[C@@H](C)O)C(=O)N1CCC[C@H]1C(=O)N[C@@H](CO)C(=O)N[C@@H](CO)C(=O)N[C@H](C(=O)N[C@@H](CC(N)=O)C(=O)N[C@H](C(=O)NCC(=O)N[C@@H](CO)C(=O)N[C@@H](Cc1c[nH]cn1)C(=O)N[C@H](C(=O)N[C@@H](Cc1ccc(O)cc1)C(N)=O)[C@@H](C)O)C(C)C)[C@@H](C)O, also called compound 18)
